Source: patent US7592003B2, “Regulation of toll-like receptors on stem cells” (Oklahoma Medical Research Foundation, priority 2005, dated 2009)

Test system: LKS^− cells
Experiment: Serum-free culture of LKS- myeloid/erythroid progenitors (and CMP, GMP subsets), F4/80 by flow cytometry
Format: cell-based, mouse
Settings: 72 h, no other growth factors
Description: FIGS. 4A-D—Activation of TLRs through MyD88 bypasses normal differentiation cues and drives monocytes/macrophages differentiation of myeloid progenitors. (FIG. 4A) Sorted LKS^− cells from C57BL/6 or MyD88^−/− mice were stimulated with medium alone, LPS (10 μg/ml), Pam3CSK4 (1 μg/ml), M-CSF, or GM-CSF. After 72 h in culture, cells were analyzed by flow cytometry for expression of F4/80. Open histograms depict staining with the isotype matched Ab for F4/80. Percentages given in each histogram indicate the frequencies of F4/80^+ cells and the results are representative of three independent experiments. (FIG. 4B) The bar graph depicts yields, i.e., numbers of F4/80^+ cell recovered per input progenitor. Data represent mean values with standard deviations from triplicate cultures and the results are representative of three independent experiments (*P<0.005). […] After 72 h in culture, cells were analyzed by flow cytometry for expression of F4/80. […] After 24 or 48 h in culture, cells were analyzed by flow cytometry for expression of F4/80. […]
FIG. 13—TLR stimulation causes rapid production of F4/80^+ cells from LKS^− cells. […] Stimulated wells were analyzed after 24 h or 48 h of culture by flow cytometry for expression of F4/80. […]

B1: GM-CSF: Recombinant mouse GM-CSF, colony stimulating factor, 20 ng/ml (protein, UniProt P01587 18-141, looked up)
Granulocyte-macrophage …: APTRSPITVTRPWKHVEAIKEALNLLDDMPVTLNEEVEVVSNEFSFKKLTCVQTRLKIFEQGLRGNFTKLKGALNMTASYYQTYCPPTPETDCETQVTTYADFIDSLKTFLTDIPFECKKPGQK
- Acquisition of F4/80 by LKS- cells: only a subset of LKS^− myeloid progenitors responded
